T1: recombinant CAL1(1-160) (Drosophila melanogaster, UniProt Q9VEN2 1-160)
T1 construct: CAL1, residues 1-160; the vector name points to a 3C protease site; monomer by SEC-MALS; also called monomeric N-terminal fragment of CAL1; source: recombinant, T7-promoter vector pEC-K-3C-His-GST
T1 sequence (looked up): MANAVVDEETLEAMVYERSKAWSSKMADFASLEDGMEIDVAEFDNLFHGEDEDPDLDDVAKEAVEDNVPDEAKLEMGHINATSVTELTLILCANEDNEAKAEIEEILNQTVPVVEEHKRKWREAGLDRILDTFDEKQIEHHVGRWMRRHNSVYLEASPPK

B1: recombinant dCENP-A(101-225) (domain or fragment, Drosophila melanogaster, UniProt Q9V6Q2 101-225, looked up)
chain: QQESKTRAAGPVAAQNQTRRRKAANPMSRAKRMDREIRRLQHHPGTLIPKLPFSRLVREFIVKYSDDEPLRVTEGALLAMQESCEMYLTQRLADSYMLTKHRNRVTLEVRDMALMAYICDRGRQF
notes: also called dCENP-A lacking the N-terminal tail; source: recombinant, T7-promoter vector pET3a
B2: recombinant CAL1(841-979) (domain or fragment, Drosophila melanogaster, UniProt Q9VEN2 841-979, looked up)
chain: GGDPDCTVVTSTTGCEPPASERQEIPATIKITKRGILLHSPSAPEGASFTLTEQGLGKIIGERWARKYLKYHIGSRSFDSRHSVYYQPTPQLAAALSAPQDAQNIGNISGSSASDDDIFEQINRYGTVYSILENNSGDK
notes: also called CAL1 monomer fragment; source: recombinant, vector pEC-K-3C-His-GST
B3: CAL1-V5 (natural protein, Drosophila melanogaster, UniProt Q9VEN2 1-979, looked up)
chain: MANAVVDEETLEAMVYERSKAWSSKMADFASLEDGMEIDVAEFDNLFHGEDEDPDLDDVAKEAVEDNVPDEAKLEMGHINATSVTELTLILCANEDNEAKAEIEEILNQTVPVVEEHKRKWREAGLDRILDTFDEKQIEHHVGRWMRRHNSVYLEASPPKYLPPHHNSISDESDESMHSIDTARYIQQSRRRNAHMTNKNMTTIKMYRKHSHKRDELRAKYAYGDEQEHRHHMQAVLLRRRERERQLAYLASTPMQCVYSSGHHMRRKNLRKRRINSWMFDSASSSEEDTSFGGCDCHSCRRHYALSRSVYQSCPYGRGQREYHHRQMASRTMHTMRRQHTFDMEMDLRPRLPENECSCCNSDRLCSNVIHIANSSTEEWVVENRSNHLTQETQEKTRKQKHQPMDARKVSHQPVCSKGHEQKPLSSKATSVSKLVLSKEKYMQMFDSESSDEDNALAKKGLLCCSDKKKGMTFPTPNAAGKITHPTSSAKKAIRKEARPNGLAQIQEEGPTATNSPIESTYLPVAHMKSVSIDGSSGTSATFESPAKKAPKRGIRETSPLNGNELQQLISTIPIADEKASSLMEKVDNCIGRESFDDRNKDFMHMENSSTKTAVEKSTKQKRVSGKKSEIPKSIITNNEILEKNSTETLSEKQVAAKAKKQSVRKTGATGKPSTSRLKKSEKTKTTSSVTSTSKLEQVREEESDVSSEVLAKPKPQCSTTASILKQGGDGASNSEDDLQIALAMSKATYKEEQQKRKKTKREPSNKQPQSPAEKSMTVFNNQSVACNSTALANDTACYRVLPKRRGVKRAAAVSTTEEKTATNSSSSPTSSLEEMGSPTGGDPDCTVVTSTTGCEPPASERQEIPATIKITKRGILLHSPSAPEGASFTLTEQGLGKIIGERWARKYLKYHIGSRSFDSRHSVYYQPTPQLAAALSAPQDAQNIGNISGSSASDDDIFEQINRYGTVYSILENNSGDK
notes: CAL1, Drosophila dCENP-A-specific chaperone; also called V5-tagged CAL1; source: U2OS-LacO cells, transiently transfected, in cells; not shown: V5, C-terminal, kept
B4: recombinant His-dCENP-C(1264-1411) (domain or fragment, Drosophila melanogaster, UniProt Q9VHP9 1264-1411, looked up)
chain: GPVVFSTPLRDEQEEASTKLMQWLRGVGDAPPSASMSDENASVSSANELIFCQVDGIDYAFYNTKEKAMLGYMRFKPYQKRSMKQAKVHPLKLLVQFGEFNVETLAVGEEKEVHSVLRVGDMIEIDRGTRYSIQNAIDKVSVLMCIRS
notes: dimer by SEC-MALS; source: recombinant, T7-promoter vector; not shown: His, N-terminal, kept

Tests used:
recombinant CAL1(1-160) = target: T1, recombinant CAL1(1-160); test: SEC-MALS; recombinant proteins; Superdex 200 10/300 Increase GL, 50 mM HEPES pH 8.0, 150 or 300 mM NaCl, 1 mM TCEP, 22°C, 100 μl of 1-5 mg/ml; conditions: both partners purified
recombinant dH4 = target: T2, recombinant dH4 (Drosophila melanogaster, UniProt P84040 1-103); test: as above; conditions: both partners purified
T2 construct: Drosophila histone H4 (dH4); source: recombinant, T7-promoter vector pET3a (from Karolin Luger)

[1] = target: B4; test: as above; conditions: both partners purified
[2] = target: B4; test: mass spectrometry (iBAQ peptide intensities) of the complex; ratio of iBAQ intensities of the two fragments within the recombinant His-dCENP-C(1264-1411)/CAL1(841-979) complex; conditions: both partners purified
dCENP-A^C-GFP-LacI = target: T3, dCENP-A^C-GFP-LacI (Drosophila melanogaster, UniProt Q9V6Q2 1-202; P02299 116-136); test: LacI/LacO tethering and recruitment assay (immunofluorescence); bait fused to GFP-LacI tethered to chromosomal LacO arrays in human U2OS cells; HA- or V5-tagged prey transiently co-expressed; IF 48 h after transfection, prey intensity at the LacO spot or % of cells; no third Drosophila centromere protein co-expressed; conditions: partners not purified
T3 construct: Drosophila CENP-A, N, L1 and α2 domains, residues 1-202; Drosophila histone H3, C region, residues 116-136; also called dCENP-A^C chimera; source: U2OS-LacO cells, transiently transfected, in cells; not shown: GFP-LacI (LacI lacking 11 C-terminal amino acids), C-terminal, kept
T3 sequence (Q9V6Q2 other isoform, or with tags, fused parts or gaps): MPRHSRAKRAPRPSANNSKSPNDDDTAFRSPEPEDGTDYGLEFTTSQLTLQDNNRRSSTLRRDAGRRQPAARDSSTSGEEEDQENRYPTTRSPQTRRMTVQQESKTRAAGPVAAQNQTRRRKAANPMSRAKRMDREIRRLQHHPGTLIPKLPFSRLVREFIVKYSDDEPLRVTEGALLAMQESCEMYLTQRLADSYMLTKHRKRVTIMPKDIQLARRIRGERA

[3] = target: the molecule itself; test: SEC-MALS; recombinant proteins; Superdex 200 10/300 Increase GL, 50 mM HEPES pH 8.0, 150 or 300 mM NaCl, 1 mM TCEP, 22°C, 100 μl of 1-5 mg/ml

## B1
Recombinant CAL1(1-160)
  binding result: binds
Recombinant dH4
  binding result: binds

## B2
[1]
  stoichiometry N: 0.5 CAL1 chains per dCENP-C chain
[2]
  stoichiometry N: ~0.5 CAL1 chains per dCENP-C chain

## B3
dCENP-A^C-GFP-LacI
  CAL1 recruitment relative to wild-type dCENP-A: 60%

## B4
[3]
  stoichiometry N: 2

Reference: paper PMC6900781, “Reconstituting Drosophila Centromere Identity in Human Cells” (Cell Reports, 2019)
